PMC10681739, “High-throughput data and modeling reveal insights into the mechanisms of cooperative DNA-binding by transcription factor proteins”

T1: ETS1 x2 (Homo sapiens, UniProt P14921)
T1 sequence: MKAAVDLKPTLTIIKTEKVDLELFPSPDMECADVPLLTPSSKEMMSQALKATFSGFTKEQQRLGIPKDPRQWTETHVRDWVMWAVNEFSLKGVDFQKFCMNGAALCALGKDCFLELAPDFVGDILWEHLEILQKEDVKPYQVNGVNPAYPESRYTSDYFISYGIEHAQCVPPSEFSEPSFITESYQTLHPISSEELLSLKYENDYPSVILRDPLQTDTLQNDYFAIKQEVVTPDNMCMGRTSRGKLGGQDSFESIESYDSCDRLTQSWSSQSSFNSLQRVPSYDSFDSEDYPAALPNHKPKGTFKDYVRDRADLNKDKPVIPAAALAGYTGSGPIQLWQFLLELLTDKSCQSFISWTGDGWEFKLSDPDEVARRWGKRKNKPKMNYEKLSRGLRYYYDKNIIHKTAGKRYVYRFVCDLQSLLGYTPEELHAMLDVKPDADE

B1: Table S4 A row 1340 (dsDNA)
DNA 1: TTGAGGCCCAGACCGGAACTTCCTTTCGGCCTCAGT
DNA 2: ACTGAGGCCGAAAGGAAGTTCCGGTCTGGGCCTCAA
B2: Table S4 A row 2202 (dsDNA)
DNA 1: AGGGCGATTTCCGCTTTGTCGCGTTTCCTCAAGGCT
DNA 2: AGCCTTGAGGAAACGCGACAAAGCGGAAATCGCCCT
B3: Table S4 A row 822 (dsDNA)
DNA 1: AGCAGCTCAACAGGAAATACATCCTTTTCTGGTTGA
DNA 2: TCAACCAGAAAAGGATGTATTTCCTGTTGAGCTGCT
B4: Table S4 A row 215 (dsDNA)
DNA 1: GGGCCCCAGCTTCCTCTCTGCCTTCCGCCGCCCGCT
DNA 2: AGCGGGCGGCGGAAGGCAGAGAGGAAGCTGGGGCCC
B5: Table S4 A row 1679 (dsDNA)
DNA 1: AGTGTTCACTTCCTGCCCTCCCATTTCCTGAAGGTC
DNA 2: GACCTTCAGGAAATGGGAGGGCAGGAAGTGAACACT
B6: Table S4 A row 763 (dsDNA)
DNA 1: GGGCAACTTCCGCGACCTCTACCACATCCTTGAGAA
DNA 2: TTCTCAAGGATGTGGTAGAGGTCGCGGAAGTTGCCC
B7: Table S4 A row 842 (dsDNA)
DNA 1: GGGTGGCCCAGGCTTCCGCTTCCTGCCCACATACCC
DNA 2: GGGTATGTGGGCAGGAAGCGGAAGCCTGGGCCACCC
B8: Table S4 A row 323 (dsDNA)
DNA 1: TCCATGACCCCATTTCCGCTTCCTACAGGTGAGTGT
DNA 2: ACACTCACCTGTAGGAAGCGGAAATGGGGTCATGGA
B9: Table S4 A row 2224 (dsDNA)
DNA 1: GCACTTCCGCCAGAAGCCGGGTGTGTCCTTCCGGGC
DNA 2: GCCCGGAAGGACACACCCGGCTTCTGGCGGAAGTGC
B10: Table S4 A row 743 (dsDNA)
DNA 1: CCCCACTTCCTGTTGACACAATAGGCAGGATATTAA
DNA 2: TTAATATCCTGCCTATTGTGTCAACAGGAAGTGGGG
B11: Table S4 A row 2250 (dsDNA)
DNA 1: CTGACAGACCCGGAAATAAGAGGAAACCACACACTT
DNA 2: AAGTGTGTGGTTTCCTCTTATTTCCGGGTCTGTCAG
B12: Table S4 A row 2457 (dsDNA)
DNA 1: TGCAGCTAACTACTTCCGCTTCCGCTTGCGTCCCCT
DNA 2: AGGGGACGCAAGCGGAAGCGGAAGTAGTTAGCTGCA
B13: Table S4 A row 1254 (dsDNA)
DNA 1: TGAAAATGAGCATTTCCTGTTTCCTCAGGCATTTCT
DNA 2: AGAAATGCCTGAGGAAACAGGAAATGCTCATTTTCA
B14: Table S4 A row 1913 (dsDNA)
DNA 1: AAATAACAGAAAGGAAATACATCCTGCCAGTTAACA
DNA 2: TGTTAACTGGCAGGATGTATTTCCTTTCTGTTATTT
B15: Table S4 A row 57 (dsDNA)
DNA 1: ACTGGAGAACAGGAAATAGCAGGAAACGTCACCTAC
DNA 2: GTAGGTGACGTTTCCTGCTATTTCCTGTTCTCCAGT
B16: Table S4 A row 189 (dsDNA)
DNA 1: CACTTTCTGAAGAGGAAACAGGAAGTGTGTTTCATA
DNA 2: TATGAAACACACTTCCTGTTTCCTCTTCAGAAAGTG
B17: Table S4 A row 2168 (dsDNA)
DNA 1: CCGGCCTTCCACTTCCGGCGCGGAAGTTGGCGTCAC
DNA 2: GTGACGCCAACTTCCGCGCCGGAAGTGGAAGGCCGG
B18: Table S4 A row 2352 (dsDNA)
DNA 1: CGCCGCTGACACCGGAACCGGAAACTTCATCAGGAG
DNA 2: CTCCTGATGAAGTTTCCGGTTCCGGTGTCAGCGGCG
B19: Table S4 A row 1898 (dsDNA)
DNA 1: CCACCGGAAGACCTCAGTCATGTGGGTTTTCCGGTT
DNA 2: AACCGGAAAACCCACATGACTGAGGTCTTCCGGTGG
B20: Table S4 A row 1991 (dsDNA)
DNA 1: GCGCGCACCCTCCTTCCGGCATCCGTAGAACCCCCG
DNA 2: CGGGGGTTCTACGGATGCCGGAAGGAGGGTGCGCGC
B21: Table S4 A row 2376 (dsDNA)
DNA 1: CCCAGAGCCAATTTTCCACTTCCGCTTCCGGCGCTG
DNA 2: CAGCGCCGGAAGCGGAAGTGGAAAATTGGCTCTGGG
B22: Table S4 A row 314 (dsDNA)
DNA 1: TTGGGAGGCACAGGAAGACCGGATGTGGTTTAAGAA
DNA 2: TTCTTAAACCACATCCGGTCTTCCTGTGCCTCCCAA
B23: Table S4 A row 305 (dsDNA)
DNA 1: GCCGCTTCCTGTTCAGAGGACAGACAGCTTCCTGAC
DNA 2: GTCAGGAAGCTGTCTGTCCTCTGAACAGGAAGCGGC
B24: Table S4 A row 557 (dsDNA)
DNA 1: TTGACATCCTGCTCTCCTGTGACTTTGCTTCCTGTT
DNA 2: AACAGGAAGCAAAGTCACAGGAGAGCAGGATGTCAA
B25: Table S4 A row 1450 (dsDNA)
DNA 1: CTCCCACTTCCTTCCTGTGCGGGGAAGAAAACTGCC
DNA 2: GGCAGTTTTCTTCCCCGCACAGGAAGGAAGTGGGAG
B26: Table S4 A row 255 (dsDNA)
DNA 1: CTGGAGGCAGGCTTCCTGTGCTTCCTGTAGGTGACA
DNA 2: TGTCACCTACAGGAAGCACAGGAAGCCTGCCTCCAG
B27: Table S4 A row 1689 (dsDNA)
DNA 1: TGCCCGGATGTTGAGGTCTGGTTGGCATTTCCTGTG
DNA 2: CACAGGAAATGCCAACCAGACCTCAACATCCGGGCA
B28: Table S4 A row 1887 (dsDNA)
DNA 1: CACTCAGGAAGTAGGTCAGGAGGAGATATCCTGTGT
DNA 2: ACACAGGATATCTCCTCCTGACCTACTTCCTGAGTG
B29: Table S4 A row 2310 (dsDNA)
DNA 1: CATACGGCGCCACCGGAAGTTCCGGCAAGTGGGCCC
DNA 2: GGGCCCACTTGCCGGAACTTCCGGTGGCGCCGTATG
B30: Table S4 A row 916 (dsDNA)
DNA 1: ACTGCAGATCCCCTTCCTGTTTCCTTTGCTCTCCTG
DNA 2: CAGGAGAGCAAAGGAAACAGGAAGGGGATCTGCAGT
B31: Table S4 A row 809 (dsDNA)
DNA 1: GCTTGGGTGTTTCCTGTGCTGCTTCCTCTCCAACCT
DNA 2: AGGTTGGAGAGGAAGCAGCACAGGAAACACCCAAGC
B32: Table S4 A row 2246 (dsDNA)
DNA 1: AAAGCACGACCTTCCGGGACCGGAAGTGCCGGTCGA
DNA 2: TCGACCGGCACTTCCGGTCCCGGAAGGTCGTGCTTT
B33: Table S4 A row 2364 (dsDNA)
DNA 1: GTGGGGCTTCCTGCCGCAGAGCCGCCTTCCGCCCTC
DNA 2: GAGGGCGGAAGGCGGCTCTGCGGCAGGAAGCCCCAC
B34: Table S4 A row 634 (dsDNA)
DNA 1: AGACAGACACTGCTTCCTGCTTCCTAATGGCCGATC
DNA 2: GATCGGCCATTAGGAAGCAGGAAGCAGTGTCTGTCT
B35: Table S4 A row 1964 (dsDNA)
DNA 1: CCACGGTGGTGACTTCCTTTTCCGCTCCCCTACACA
DNA 2: TGTGTAGGGGAGCGGAAAAGGAAGTCACCACCGTGG
B36: Table S4 A row 1203 (dsDNA)
DNA 1: GGAGCGGAAGCCCTTTACACTACGGTGTTTCCGGCT
DNA 2: AGCCGGAAACACCGTAGTGTAAAGGGCTTCCGCTCC
B37: Table S4 A row 954 (dsDNA)
DNA 1: GGTATACAGGAAACCCAGAGAGACAGGAAATGTCTC
DNA 2: GAGACATTTCCTGTCTCTCTGGGTTTCCTGTATACC
B38: Table S4 A row 2128 (dsDNA)
DNA 1: CCGGCCCGCAGCCGGAACCGGAAATGCCCTTAGGGA
DNA 2: TCCCTAAGGGCATTTCCGGTTCCGGCTGCGGGCCGG
B39: Table S4 A row 2195 (dsDNA)
DNA 1: TGAAGAAGCACCGGAAATGCTTCCGATCGCTTCATA
DNA 2: TATGAAGCGATCGGAAGCATTTCCGGTGCTTCTTCA
B40: Table S4 A row 2460 (dsDNA)
DNA 1: GGCTGGAAGGCACTTCCGGCGGAAGTTAGAGCTGGG
DNA 2: CCCAGCTCTAACTTCCGCCGGAAGTGCCTTCCAGCC
B41: Table S4 A row 2476 (dsDNA)
DNA 1: TGTGCCGTAGCATTTCCGGCGGAAGTTGCTGGGCGC
DNA 2: GCGCCCAGCAACTTCCGCCGGAAATGCTACGGCACA
B42: Table S4 A row 1194 (dsDNA)
DNA 1: TCGGAACAGTGACTTCCGGCGGAAGAAGAAGCCGGT
DNA 2: ACCGGCTTCTTCTTCCGCCGGAAGTCACTGTTCCGA

What follows are binders tested against T1, ETS1 x2 (assay: gcPBM; 10 nM ETS1). Conditions: tags: N-terminal GST (pDEST15), kept (PMC6008103); chain copies: 2; label: surface-attached array probe.
For B1, the binding signal was 5800 PBM fluorescence, median of replicate spots. With B2 the binding signal was 37800 PBM fluorescence, median of replicate spots. In the case of B3, the binding signal is reported as 11900 PBM fluorescence, median of replicate spots. With B4 the binding signal was 6960 PBM fluorescence, median of replicate spots. For B5, the binding signal was 35600 PBM fluorescence, median of replicate spots. In the case of B6, the binding signal is reported as 19000 PBM fluorescence, median of replicate spots. B7 was tested, and the binding signal was 10900 PBM fluorescence, median of replicate spots. In the case of B8, the binding signal is reported as 21500 PBM fluorescence, median of replicate spots. In the case of B9, the binding signal is reported as 49200 PBM fluorescence, median of replicate spots. In the case of B10, the binding signal is reported as 67800 PBM fluorescence, median of replicate spots. With B11 the binding signal was 8250 PBM fluorescence, median of replicate spots. For B12, the binding signal was 24300 PBM fluorescence, median of replicate spots. For B13, the binding signal was 31500 PBM fluorescence, median of replicate spots. In the case of B14, the binding signal is reported as 8690 PBM fluorescence, median of replicate spots. With B15 the binding signal was 13600 PBM fluorescence, median of replicate spots. With B16 the binding signal was 8380 PBM fluorescence, median of replicate spots. For B17, the binding signal was 44800 PBM fluorescence, median of replicate spots. For B18, the binding signal was 6600 PBM fluorescence, median of replicate spots. B19 was tested, and the binding signal was 7470 PBM fluorescence, median of replicate spots. In the case of B20, the binding signal is reported as 15100 PBM fluorescence, median of replicate spots. For B21, the binding signal was 15700 PBM fluorescence, median of replicate spots. For B22, the binding signal was 12700 PBM fluorescence, median of replicate spots. With B23 the binding signal was 61600 PBM fluorescence, median of replicate spots. For B24, the binding signal was 20500 PBM fluorescence, median of replicate spots. With B25 the binding signal was 25000 PBM fluorescence, median of replicate spots. With B26 the binding signal was 9790 PBM fluorescence, median of replicate spots. For B27, the binding signal was 9040 PBM fluorescence, median of replicate spots. With B28 the binding signal was 6420 PBM fluorescence, median of replicate spots. B29 was tested, and the binding signal was 18500 PBM fluorescence, median of replicate spots. B30 was tested, and the binding signal was 6260 PBM fluorescence, median of replicate spots. With B31 the binding signal was 23300 PBM fluorescence, median of replicate spots. For B32, the binding signal was 28900 PBM fluorescence, median of replicate spots. For B33, the binding signal was 17300 PBM fluorescence, median of replicate spots. B34 was tested, and the binding signal was 10500 PBM fluorescence, median of replicate spots. B35 was tested, and the binding signal was 7690 PBM fluorescence, median of replicate spots. For B36, the binding signal was 5440 PBM fluorescence, median of replicate spots. In the case of B37, the binding signal is reported as 5630 PBM fluorescence, median of replicate spots. For B38, the binding signal was 17000 PBM fluorescence, median of replicate spots. With B39 the binding signal was 40400 PBM fluorescence, median of replicate spots. B40 was tested, and the binding signal was 42900 PBM fluorescence, median of replicate spots. In the case of B41, the binding signal is reported as 26900 PBM fluorescence, median of replicate spots. With B42 the binding signal was 32500 PBM fluorescence, median of replicate spots.
